Experimental data reported in US7229806B2, “Microbial conversion of glucose to para-hydroxystyrene” (E. I. du Pont de Nemours and Company, priority 2002, dated 2007).

Legend:
[1] = target: TAL activity of the PAL/TAL enzyme (Rhodotorula toruloides, UniProt P11544); assay: Inhibition of TAL activity by pHCA; type: biochemical, R. glutinis
Source text: (§1) An E. coli strain containing the wild type pal/tal gene (PAL/TAL ratio of 2.0) uses both PAL and TAL routes to convert glucose to both CA and pHCA. […] Based on the kinetic information it is expected that the presence of phenylalanine would interfere with the TAL activity of the enzyme.

E. coli NST74 = assay: Toxicity of pHCA and pHS to the cells; type: cell-based; details: previous studies
[2] = Characterization of purified PDC enzymes (pHCA as substrate); type: biochemical; details: PDC enzyme
Experimental: The reaction was initiated by the addition of 1.0 μL of enzyme to a 1.0 mL solution containing 25 mM phosphate buffer, pH 6.0, and 0.2 mM pHCA in a plastic, UV transparent cuvette. The reaction was then followed for 5 minutes spectrophotometrically at 315 nm at room temperature, using a molar extinction coefficient of […] for pHCA disappearance. The specific activity was expressed as micromoles of pHCA degraded per minute per milligram of protein.
The characteristics of the PDC enzymes isolated from L. plantarum and B. subtilis were obtained using standard spectrometric and electrophoretic techniques and are listed in Table 5.

[3] = TAL/PAL activity ratio of wild type and mutant PAL/TAL enzymes, separate TAL and PAL measurements in whole cells; type: biochemical; details: ratio of TAL catalytic activity to PAL catalytic activity
Experimental: In order to select for those mutants having genes encoding proteins with enhanced TAL activity, a selection system based on the reversibility of the tyrosine to PHCA reaction was developed. It will be appreciated that the TAL activity responsible for the conversion of tyrosine to pHCA is in a state of equilibrium with the opposite reaction. Mutant genes were cloned by standard methods into E. coli tyrosine auxotrophs, unable to grow in the absence of tyrosine. Transformants were plated on tyrosine minus medium in the presence of suitable concentrations of pHCA. Those colonies which grew under these conditions were picked and analyzed for the presence of the mutant gene. In this fashion, a gene was isolated that expressed an enzyme having a catalytic efficiency of about 12.6×10^3 M^−1sec^−1 and a ratio of TAL catalytic activity to PAL catalytic activity of 1.7 compared to 0.5 for the wild type.
A simple method is disclosed that relies on separate measurements of the TAL and PAL activities in whole cells. The ratio of TAL to PAL activity then may be calculated and quickly compared to wild type activity, to monitor changes in the bio-catalyst activity.
Using the above approach Applicants have identified a variety of mutant PAL enzymes that have increased TAL activity, compared to the wild type gene. These mutants were identified using the methods of mutagenesis and screening described above. The mutants, the altered amino acid residues, and the TAL/PAL activity are summarized below.

[4] = Kinetic studies with the PAL/TAL enzyme (Vmax, PAL/TAL ratio); type: biochemical
Source text: as §1

O=C(O)C=Cc1ccc(O)cc1 [pHCA, para-Hydroxycinnamic acid]
Ki [1]: 16 µM
toxic to the cells (E. coli NST74): toxic

C=Cc1ccc(O)cc1 [pHS, para-Hydroxystyrene]
toxic to the cells (E. coli NST74): toxic
concentration showing toxicity to the cells (E. coli NST74; as low as): ≥ 0.5 g/L

B1: L. plantarum: para-hydroxycinnamic acid decarboxylase (pdc1) from L. plantarum, SEQ ID NO:4, expressed in E. coli and purified (protein, listed as Lactobacillus plantarum)
chain: MTKTFKTLDDFLGTHFIYTYDNGWEYEWYAKNDHTVDYRIHGGMVAGRWVTDQKADIVMLTEGIYKISWTEPTGTDVALDFMPNEKKLHGTIFFPKWVEEHPEITVTYQNEHIDLMEQSREKYATYPKLVVPEFANITYMGEGQNNEDVISEAPYKEMPNDIRNGKYLIKTTIV
Km [2]: 1.4 mM

B2: B. subtilis: para-hydroxycinnamic acid decarboxylase (pdc2) from B. subtilis, SEQ ID NO:6, expressed in E. coli and purified (protein, listed as Bacillus subtilis)
chain: MENFIGSHMIYTYENGWEYEIYIKNDHTIDYRIHSGMVAGRWVRDQEVNIVKLTEGVYKVSWTEPTGTDVSLNFMPNEKRMHGIIFFPKWVHEHPEITVCYQNDHIDLMKESREKYETYPKYVVPEFAEITFLKNEGVDNEEVISKAPYEGMTDDIRAGRL
Km [2]: 1.3 mM

B3: Wild Type PAL: wild type phenylalanine-tyrosine ammonia lyase (pal/tal) enzyme from R. glutinis, SEQ ID NO:2 (protein, listed as Rhodotorula glutinis)
chain: MAPSLDSISHSFANGVASAKQAVNGASTNLAVAGSHLPTTQVTQVDIVEKMLAAPTDSTLELDGYSLNLGDVVSAARKGRPVRVKDSDEIRSKIDKSVEFLRSQLSMSVYGVTTGFGGSADTRTEDAISLQKALLEHQLCGVLPSSFDSFRLGRGLENSLPLEVVRGAMTIRVNSLTRGHSAVRLVVLEALTNFLNHGITPIVPLRGTISASGDLSPLSYIAAAISGHPDSKVHVVHEGKEKILYAREAMALFNLEPVVLGPKEGLGLVNGTAVSASMATLALHDAHMLSLLSQSLTAMTVEAMVGHAGSFHPFLHDVTRPHPTQIEVAGNIRKLLEGSRFAVHHEEEVKVKDDEGILRQDRYPLRTSPQWLGPLVSDLIHAHAVLTIEAGQSTTDNPLIDVENKTSHHGGNFQAAAVANTMEKTRLGLAQIGKLNFTQLTEMLNAGMNRGLPSCLAAEDPSLSYHCKGLDIAAAAYTSELGHLANPVTTHVQPAEMANQAVNSLALISARRTTESNDVLSLLLATHLYCVLQAIDLRAIEFEFKKQFGPAIVSLIDQHFGSAMTGSNLRDELVEKVNKTLAKRLEQTNSYDLVPRWHDAFSFAAGTVVEVLSSTSLSLAAVNAWKVAAAESAISLTRQVRETFWSAASTSSPALSYLSPRTQILYAFVREELGVKARRGDVFLGKQEVTIGSNVSKIYEAIKSGRINNVLLKMLA
TAL/PAL ratio [3]: 0.5
Vmax for PAL ([4]; previous kinetic studies): 5.5
Vmax for TAL ([4]; previous kinetic studies): 0.76
PAL/TAL ratio ([4]; wild type pal/tal gene in E. coli): 2.0

B4: RM120-7: mutant TAL enzyme, SEQ ID NO:17 (protein)
chain: MAPSLDSISHSFANGVASAKQAVNGASTNLAVAGSHLPTTQVTQVDIVEKMLAAPTDSTLELDGYSLNLGDVVSAARKGRPVRVKDSDEIRSKIDKSVEFLRSQLSMSVYGVTTGFGGSADTRTEDAISLQKALLEHQLCGVLPSSFDXFRLGRGLENSLPLEVVRGAMTIRVNSLTRGHSAVRLVVLEALTNFLNHGITPXVPLRGTISASGDLSPLSYIAAAISGHPDSKVHVVHEGKEKILYAREAMALFNLEPVVLGPKEGLGLVNGTAVSASMATLALHDAHMLSLLSQSLTAMTVEAMVGHAGSFHPFLHDVTRPHPTQIEVAGNIRKLLEGSRFAVHHEEEVKVKDDEGILRQDRYPLRTSPQWLGPLVSDLIHAHAVLTIEAGQSTTDNPLIDVENKTSHHGGNFQAAAVANTMEKTRLGLAQIGKLNFTQLTEMLNAGMNRGLPSCLAAEDPSLSYHCKGLDIAAAAYTSELGHLANPVTTHVQPAEMANQAVNSLALISARRTTESNDVLSLLLATHLYCVLQAIDLRAXEFEFKKQFGPAIVSLIDQHFGSAMTGSNLRDELVEKVNKTLAKRLEQTNSYDLVPRWHDAFSFAAGTVVEVLSSTSLSLAAVNAWKVAAAESAISLTRQVRETFWSAASTSSPALSYLSPRTQILYAFVREELGVKARRGDVFLGKQEVTIGSNVSKIYEAIKSGRINNVLLKMLA
modifications: Mutant from Rhodotorula glutinis
TAL/PAL ratio [3]: 0.8

B5: RM120-1: mutant TAL enzyme, SEQ ID NO:14 (protein)
chain: MAPSLDSISHSFANGVASAKQAVNGASTNLAVAGSHLPTTQVTQVDIVEKMLAAPTDSTLELDGYSLNLGDVVSAARKGRPVRVKDSDEIRSKIDKSVEFLRSQLSMSVYGVTTGFGGSADTRTEXAISLQKALLEHXLCGVLPSSFDSFRLGRGLENSLPLEVVRGAMTIRVNSLTRGHSAVRLVVLEALTNFLNHGITPIVPLRGTISASGDLSPLSYIAAAISGHPDSKVHVVHEGKEKILYAREAMALFNLEPVVLGPKEGLGLVNGTAVSASMATLALHDAHMLSLLSQSLTAMTVEAMVGHAGSFHPFLHDVTRPHPTQIEVAGNIRKLLEGSRFAVHHEEEVKVKDDEGILRQDRYPLRTSPQWLGPLVSDLIHAHAVLTIEAGQSTTDNPLIDVENKTSHHGGNFQAAAVANTMEKTRLGLAQIGKLNFTQLTEMLNAGMNRGLPSCLAAEDPSLSYHCKGLDIAAAAYTSELGHLANPVTTHVQPAEMANQAVNSLALISARRTTESNDVLSLLLATHLYCVLQAIDLRAXEFEFKKQFGPAIVSLIDQHFGSAMTGSNLRDELVEKVNKTLAKRLEQTNSYDLVPRWHDAFSFAAGTVVEVLSSTSLSLAAVNAWKVAAAESAISLTRQVRETFWSAASTSSPALSYLSPRTQILYAFVREELGVKARRGDVFLGKQEVTIGSNVSKIYEAIKSGRINNVLLKMLA
modifications: Mutant from Rhodotorula glutinis
TAL/PAL ratio [3]: 7.2

B6: RM120-4: mutant TAL enzyme, SEQ ID NO:16 (protein)
chain: MAPSLDSISHSFANGVASAKQAVNGASTNLAVAGSHLPTTQVTQVDIVEKMLAAPTDSTLELDGYSLNLGDVVSAARKGRPVRVKDSDEIRSKIDKSVEFLRSQLSMSVYGVTTGFGGSADTRTEDAISLQKALLEHQLCGVLPSSFDSFRLGRGLENSLPLEVVRGAMTIRVNSLTRGHXAVRLVVLEALTNFLNHGITPIVPLRGTISASGDLSPLSYIAAAISGHPDSKVHXVHEGKEKILYAREAMALFNLEPVVLGPKEGLGLVNGTAVSASMATLALHDAHMLSLLSQSLTAMTVEAMVGHAGSFHPFLHDVTRPHPTQIEVAGNIRKLLEGSRFAVHHEEEVKVKDDEGILRQDRYPLRTSPQWLGPLVSDLIHAHAVLTIEAGQSTTDNPLIDVENKTSHHGGNFQAAAVANTMEKTRLGLAQIGKLNFTQLTEMLNAGMNRGLPSCLAAEDPSLSYHCKGLDIAAAAYTSELGHLANPVTTHVQPAEMANQAVNSLALISARRTTESNDVLSLLLATHLYCVLQAIDLRAXEFEFKKQFGPAIVSLIDQHFGSAMTGSNLRDELVEKVNKTLAKRLEQTNSYDLVPRWHDAFSFAAGTVVEVLSSTSLSLAAVNAWKVAAAESAISLTRQVRETFWSAASTSSPALSYLSPRTQILYAFVREELGVKARRGDVFLGKQEVTIGSNVSKIYEAIKSGRINNVLLKMLA
modifications: Mutant from Rhodotorula glutinis
TAL/PAL ratio [3]: 2.0

B7: RM492-1: mutant TAL enzyme, SEQ ID NO:18 (protein)
chain: MAPSLDSISHSFANGVASAKQAVNGASTNLAVAGSHLPTTQVTQVDIVEKMLAAPTDSTLELDGYSLNLGDVVSAARKGRPVRVKDSDEIRSKIDKSVEFLRSQLSMSVYGVTTGFGGSADTRTEDAISLQKALLEHQLCGVLPSSFDSFRLGRGLENSLPLEVVRGAMTIRVNSLTRGHSAVRLVVLEALTNFLNHGITPIVPLRGTISASGDLSPLSYIAAAISGHPDSKVHVVHEGKEKILYAREAMALFNLEPVVLGPKEGLGLVNGTAVSASMATLALHDAHMLSLLSQSLTAMTVEAMVGHAGSFHPFLHDVTRPHPTQIEVAGNIRKLLEGSRFAVHHEEEVKVKDDEGILRQDRYPLRTSPQWLGPLVSDLIHAHAVLTIEAGQSTTDNPLIDVENKTSHHGGNFQAAAVANTMEKTRLGLAQIGKLNFTQLTEMLNAGMNRGLPSCLAAEDPSLSYHCKGLDIAAAAYTSELGHLANPVTTHVQPAEMANQAGNSLALISARRTTESNDVLSLLLATHLYCVLQAIDLRATEFEFKKQFGPAIVSLIDQHFGSAMTGSNLRDELVEKVNKTLAKRLEQTNSYDLVPRWHDAFSFAAGTVVEVLSSTSLSLAAVNAWKVAAAESAISLTRQVRETFWSAASTSSPALSYLSPRTQILYAFVREELGVKARRGDVFLGKQEVTIGSNVSKIYEAIKSGRINNVLLKMLA
modifications: not fully specified
TAL/PAL ratio [3]: 2.0
